From article PMC3958483, “Fine Specificity and Molecular Competition in SLAM Family Receptor Signalling” (PLoS ONE, 2014)

Tests used:
Assay in all cases: SPR; biotinylated phosphopeptides immobilised on streptavidin chip (about 25 RU single, 50 RU tandem motifs); soluble recombinant protein injected; 37°C; HBS-EP; equilibrium binding (Table 4; same-day purification not given)
[1] = target: CD244 ITSM4 phosphopeptide (human)
[2] = target: CD244 ITSM2 phosphopeptide (human)
[3] = target: CD244 ITSM3 phosphopeptide (human)

Sequence of SAP (recombinant full-length human SAP) (O60880 whole entry): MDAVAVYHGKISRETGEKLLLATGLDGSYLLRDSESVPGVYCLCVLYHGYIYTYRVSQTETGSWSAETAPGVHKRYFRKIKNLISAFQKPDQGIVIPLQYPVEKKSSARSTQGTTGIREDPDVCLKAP

Kd [1]: 1.9 µM
Kd [2]: 0.02 µM
Kd [3]: 0.08 µM
Substance: SAP (recombinant full-length human SAP) (from UniProt O60880 1-128) (natural protein)
